Test results from ChEMBL document CHEMBL1123043, “Effects of charge, volume, and surface on binding of inhibitor and substrate moieties to acetylcholinesterase” (J Med Chem, 1985).

Tests used:
[1] = substrate: CS(=O)(=O)CCO
Description: (§1) Compound was evaluated for reversible inhibition of hydrolysis acetylcholine by acetylcholinesterase and represented as Km(app) apparent binding constant

[2] = substrate: CC(=O)CCC[N+](C)(C)[O-]
Description: as §1

[3] = substrate: C[Si](C)(C)CCO
Description: as §1

[4] = substrate: CCCCO
Description: as §1

[5] = substrate: CSCCO
Description: as §1

[6] = substrate: CC(C)(C)CCO
Description: as §1

[7] = substrate: CN(C)C
Description: as §1

[8] = substrate: C[S+](C)CCO
Description: as §1

[9] = substrate: CC(=O)OCCS(C)(=O)=O
Description: as §1

[10] = substrate: C[N+](C)(C)CCO
Description: as §1
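Further: apparent binding constant Km(app) for reversible inhibition of acetylcholine hydrolysis catalysed by acetylcholinesterase.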

B1: Choline O-acetyltransferase (Rattus norvegicus), P32738 (protein)
chain: MPILEKAPQKMPVKASSWEELDLPKLPVPPLQQTLATYLQCMQHLVPEEQFRKSQAIVKRFGAPGGLGETLQEKLLERQEKTANWVSEYWLNDMYLNNRLALPVNSSPAVIFARQHFQDTNDQLRFAACLISGVLSYKTLLDSHSLPTDWAKGQLSGQPLCMKQYYRLFSSYRLPGHTQDTLVAQKSSIMPEPEHVIVACCNQFFVLDVVINFRRLSEGDLFTQLRKIVKMASNEDERLPPIGLLTSDGRSEWAKARTVLLKDSTNRDSLDMIERCICLVCLDGPGTGELSDTHRALQLLHGGGCSLNGANRWYDKSLQFVVGRDGTCGVVCEHSPFDGIVLVQCTEHLLKHMMTSNKKLVRADSVSELPAPRRLRLKCSPETQGHLASSAEKLQRIVKNLDFIVYKFDNYGKTFIKKQKYSPDGFIQVALQLAYYRLYQRLVPTYESASIRRFQEGRVDNIRSATPEALAFVQAMTDHKAAMPASEKLQLLQTAMQAHKQYTVMAITGMAIDNHLLALRELARDLCKEPPEMFMDETYLMSNRFVLSTSQVPTTMEMFCCYGPVVPNGNGACYNPQPEAITFCISSFHSCKETSSVEFAEAVGASLVDMRDLCSSRQPADSKPPAPKEKARGPSQAKQS
Km [1]: 6.2 mM | Km [2]: 18 mM | Km [3]: 3.5 mM | Km [4]: 13 mM | Km [5]: 15 mM | Km [6]: 5.3 mM | Km [7]: 18 mM | Km [8]: 0.33 mM | Km [9]: 6.2 mM | Km [10]: 0.33 mM
